Experimental findings from US7572450 are described below.

Side chains are listed from the residue outwards. Ends that are not written are not given here. maleimide = maleimide-activated rabbit IgG carrier, to which the peptide is conjugated through its cysteine; rabbit IgG = rabbit IgG carrier (maleimide-activated), conjugated to the peptide

This assay addresses AD7C-NTP neural thread protein (purified recombinant AD7C-NTP). Put plainly: cell-based or functional assay.
For C([maleimide-rabbit IgG])ARYRTGHHARLM [Harlil sequence NTP-3], the reduction in tissue necrosis (rat injection sites, histopathology at 24 hours) is over 95%.
Then DNTHHARLIL (also: conjugated to maleimide-activated rabbit IgG, mode not given here) [Harlil sequence NTP-7], with over 95%; and LHARLCLANFCGRNRV (also: conjugated through a cysteine to maleimide-activated rabbit IgG) [Harlil sequence NTP-1], with over 95%.
